Experimental data from PMC11292656.

Molecular target: sVP40Δ43 R214A (Sudan virus) (UniProt Q5XX06)
Assay: SEC

With “sVP40Δ43 R214A (from UniProt Q5XX06 44-326) (domain or fragment)” as the substance, how does the octameric percentage of total VP40 AUC read?
Its octameric percentage of total VP40 AUC is 50%.
